Experimental data: publication PMC12816604, “Structural basis of double-stranded RNA recognition by the J2 monoclonal antibody”

What was measured:
Assay in all cases: BLI; 100 mM KCl; BLI: 25 mM Tris-HCl pH 7.5, 2 mM MgCl2, KCl 100 mM (6-20 bp and mutants), 200 mM (30 bp) or 400 mM (40, 50 bp), 25 C; IgG immobilised on Protein A probes
Conditions in all cases: protein: recombinant;recombinant; tags: His8 (C-term);; chain copies: 2;2; blunt
[1] = target: J2 IgG light chain Y38F;J2 IgG heavy chain (HC-TEV-His8) (Mus musculus;Mus musculus, UniProt ; ;, Y38F|)
[2] = target: J2 IgG light chain Y31F;J2 IgG heavy chain (HC-TEV-His8) (Mus musculus;Mus musculus, UniProt ; ;, Y31F|)
[3] = target: J2 IgG light chain Y31A;J2 IgG heavy chain (HC-TEV-His8) (Mus musculus;Mus musculus, UniProt ; ;, Y31A|)
[4] = target: J2 IgG heavy chain (HC-TEV-His8) Y54F;J2 IgG light chain (Mus musculus;Mus musculus, UniProt ; ;, Y54F|)
[5] = target: J2 IgG heavy chain (HC-TEV-His8) Y52F;J2 IgG light chain (Mus musculus;Mus musculus, UniProt ; ;, Y52F|)
[6] = target: J2 IgG heavy chain (HC-TEV-His8) A30P;J2 IgG light chain (Mus musculus;Mus musculus, UniProt ; ;, A30P|)
[7] = target: J2 IgG heavy chain (HC-TEV-His8);J2 IgG light chain (Mus musculus;Mus musculus, UniProt ; ;, |)
[8] = target: J2 IgG heavy chain (HC-TEV-His8) Y54A;J2 IgG light chain (Mus musculus;Mus musculus, UniProt ; ;, Y54A|)
[9] = target: J2 IgG heavy chain (HC-TEV-His8) Y50F;J2 IgG light chain (Mus musculus;Mus musculus, UniProt ; ;, Y50F|)
Sequence of J2 IgG heavy chain (HC-TEV-His8) Y50F;J2 IgG light chain (chain, as listed by the source Y50F| | Y50F Y50F, chain 1 of 2): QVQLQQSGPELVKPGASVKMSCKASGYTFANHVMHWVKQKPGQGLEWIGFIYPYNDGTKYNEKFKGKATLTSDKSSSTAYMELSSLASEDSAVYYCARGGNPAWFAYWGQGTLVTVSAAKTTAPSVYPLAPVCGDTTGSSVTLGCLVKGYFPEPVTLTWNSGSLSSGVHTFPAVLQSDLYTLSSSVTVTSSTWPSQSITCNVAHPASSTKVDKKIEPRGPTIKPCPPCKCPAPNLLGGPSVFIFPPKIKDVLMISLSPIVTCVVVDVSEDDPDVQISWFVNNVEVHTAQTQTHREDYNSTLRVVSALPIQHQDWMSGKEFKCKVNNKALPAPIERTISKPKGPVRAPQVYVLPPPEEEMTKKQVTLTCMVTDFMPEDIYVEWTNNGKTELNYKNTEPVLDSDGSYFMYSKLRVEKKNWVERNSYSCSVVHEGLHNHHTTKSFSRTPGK
Sequence of J2 IgG heavy chain (HC-TEV-His8) Y50F;J2 IgG light chain (chain, as listed by the source Y50F| | Y50F Y50F, chain 2 of 2): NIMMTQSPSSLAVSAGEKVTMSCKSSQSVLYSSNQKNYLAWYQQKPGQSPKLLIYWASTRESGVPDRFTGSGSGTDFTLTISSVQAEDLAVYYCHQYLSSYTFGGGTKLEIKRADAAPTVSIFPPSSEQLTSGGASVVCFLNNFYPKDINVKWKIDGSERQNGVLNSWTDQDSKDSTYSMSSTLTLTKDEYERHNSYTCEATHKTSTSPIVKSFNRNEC

Sequence of J2 IgG heavy chain (HC-TEV-His8) A30P;J2 IgG light chain (chain, as listed by the source A30P| | A30P A30P, chain 1 of 2): as the sequence (chain, as listed by the source Y50F| | Y50F Y50F, chain 1 of 2) above, with A30P, F50Y counted along it
Sequence of J2 IgG heavy chain (HC-TEV-His8) A30P;J2 IgG light chain (chain, as listed by the source A30P| | A30P A30P, chain 2 of 2): as the sequence (chain, as listed by the source Y50F| | Y50F Y50F, chain 2 of 2) above
Sequence of J2 IgG heavy chain (HC-TEV-His8);J2 IgG light chain (chain, as listed by the source |, chain 1 of 2): as the sequence (chain, as listed by the source Y50F| | Y50F Y50F, chain 1 of 2) above, with F50Y counted along it
Sequence of J2 IgG heavy chain (HC-TEV-His8);J2 IgG light chain (chain, as listed by the source |, chain 2 of 2): as the sequence (chain, as listed by the source Y50F| | Y50F Y50F, chain 2 of 2) above
Sequence of J2 IgG light chain Y38F;J2 IgG heavy chain (HC-TEV-His8) (chain, as listed by the source Y38F| | Y38F Y38F, chain 1 of 2): as the sequence (chain, as listed by the source Y50F| | Y50F Y50F, chain 2 of 2) above, with Y38F counted along it
Sequence of J2 IgG light chain Y38F;J2 IgG heavy chain (HC-TEV-His8) (chain, as listed by the source Y38F| | Y38F Y38F, chain 2 of 2): as the sequence (chain, as listed by the source Y50F| | Y50F Y50F, chain 1 of 2) above, with F50Y counted along it
Sequence of J2 IgG light chain Y31A;J2 IgG heavy chain (HC-TEV-His8) (chain, as listed by the source Y31A| | Y31A Y31A, chain 1 of 2): as the sequence (chain, as listed by the source Y50F| | Y50F Y50F, chain 2 of 2) above, with Y31A counted along it
Sequence of J2 IgG light chain Y31A;J2 IgG heavy chain (HC-TEV-His8) (chain, as listed by the source Y31A| | Y31A Y31A, chain 2 of 2): as the sequence (chain, as listed by the source Y50F| | Y50F Y50F, chain 1 of 2) above, with F50Y counted along it
Sequence of J2 IgG heavy chain (HC-TEV-His8) Y54A;J2 IgG light chain (chain, as listed by the source Y54A| | Y54A Y54A, chain 1 of 2): as the sequence (chain, as listed by the source Y50F| | Y50F Y50F, chain 1 of 2) above, with F50Y, Y54A counted along it
Sequence of J2 IgG heavy chain (HC-TEV-His8) Y54A;J2 IgG light chain (chain, as listed by the source Y54A| | Y54A Y54A, chain 2 of 2): as the sequence (chain, as listed by the source Y50F| | Y50F Y50F, chain 2 of 2) above
Sequence of J2 IgG light chain Y31F;J2 IgG heavy chain (HC-TEV-His8) (chain, as listed by the source Y31F| | Y31F Y31F, chain 1 of 2): as the sequence (chain, as listed by the source Y50F| | Y50F Y50F, chain 2 of 2) above, with Y31F counted along it
Sequence of J2 IgG light chain Y31F;J2 IgG heavy chain (HC-TEV-His8) (chain, as listed by the source Y31F| | Y31F Y31F, chain 2 of 2): as the sequence (chain, as listed by the source Y50F| | Y50F Y50F, chain 1 of 2) above, with F50Y counted along it
Sequence of J2 IgG heavy chain (HC-TEV-His8) Y52F;J2 IgG light chain (chain, as listed by the source Y52F| | Y52F Y52F, chain 1 of 2): as the sequence (chain, as listed by the source Y50F| | Y50F Y50F, chain 1 of 2) above, with F50Y, Y52F counted along it
Sequence of J2 IgG heavy chain (HC-TEV-His8) Y52F;J2 IgG light chain (chain, as listed by the source Y52F| | Y52F Y52F, chain 2 of 2): as the sequence (chain, as listed by the source Y50F| | Y50F Y50F, chain 2 of 2) above
Sequence of J2 IgG heavy chain (HC-TEV-His8) Y54F;J2 IgG light chain (chain, as listed by the source Y54F| | Y54F Y54F, chain 1 of 2): as the sequence (chain, as listed by the source Y50F| | Y50F Y50F, chain 1 of 2) above, with F50Y, Y54F counted along it
Sequence of J2 IgG heavy chain (HC-TEV-His8) Y54F;J2 IgG light chain (chain, as listed by the source Y54F| | Y54F Y54F, chain 2 of 2): as the sequence (chain, as listed by the source Y50F| | Y50F Y50F, chain 2 of 2) above

B1: 20-bp dsRNA (dsRNA)
RNA 1: GUUGUAAAGAAGGUCAAUAU
RNA 2: AUAUUGACCUUCUUUACAAC
Kd [1]: 150 ± 20 nM | Kd [2]: 360 ± 60 nM | Kd [3]: 940 ± 560 nM | Kd [4]: 710 ± 170 nM | Kd [5]: 220 nM | Kd [6]: 120 ± 20 nM | Kd [7]: 120 ± 10 nM | Kd [8]: 300 ± 30 nM | Kd [9]: 430 ± 40 nM
